These results are taken from PMC8609364, “A Selective Tether Recruits Activated Response Regulator CheB to Its Chemoreceptor Substrate” (mBio, 2021).

For assay [1], the target named is T1, Tar4EΔpp-6H L378C, E. coli Tar lacking the carboxyl-terminal pentapeptide, all-glutamyl form, homodimer in … (E. coli, UniProt P07017 1-553, L378C, biotinylated at L378C). Briefly: SPR.
Assay [2] deals with Tar4Q L378C, E. coli aspartate chemoreceptor Tar, all-glutaminyl form with carboxyl-terminal pentapeptide, … (E. coli, UniProt P07017 1-553, L378C, biotinylated at L378C). Briefly: SPR. (In general: SPR reads the build-up and loss of mass on a sensor chip optically.)
Assay [3] has as its target T2, Tar4E L378C, E. coli aspartate chemoreceptor Tar, all-glutamyl form with carboxyl-terminal pentapeptide, … (E. coli, UniProt P07017 1-553, L378C, biotinylated at L378C). Briefly: SPR.
Assay [4] addresses Tar4QΔpp-6H L378C, E. coli Tar lacking the carboxyl-terminal pentapeptide, all-glutaminyl form, homodimer in … (E. coli, UniProt P07017 1-553, L378C, biotinylated at L378C). Briefly: SPR.
Assay [5] addresses T1, Tar4EΔpp-6H L378C, E. coli Tar lacking …. In words: SPR. The source holds these as a separate data set.
Assay [6] has as its target T2, Tar4E L378C, E. coli aspartate …. Briefly: SPR. This is another data set of the same source.
The target of assay [7] is Tar4Q (chemoreceptor Tar, all-glutaminyl, pentapeptide-bearing). In words: CheB binding to pentapeptide-bearing Tar4Q in Nanodiscs (biolayer interferometry). The note with it: Tar 4Q, pentapeptide yes, BLI; for dwell time (1/koff) / KA (equilibrium association constant) / kon (apparent association rate constant): pH 7.5, 2% BSA (plus 2 mM DTT for CheB and CheBc); for dwell time (1/koff): calculated from mean koff; for kon (apparent association rate constant): mean ± SD of at least three independent experiments. Details: species or system E. coli. As to the method: (§1) We determined the kinetics of association and dissociation of methylesterase/deamidase CheB in its low- and high-activity form with the E. coli aspartate chemoreceptor Tar using biolayer interferometry ([22], [23]) and isolated receptor homodimers in Nanodiscs ([24], [25]). Apparent rate constants of association and dissociation were derived from global fits of time courses for binding and release (see Fig. S1 in the supplemental material). Equilibrium dissociation constants were calculated from those apparent rate constants.
(§2) E. coli CheB and Salmonella CheB D56C/C207S/C309S and D56C/S164A/C207S/C309S were purified as described previously ([11]). CheBC (amino acids [aa] 153 to 349) was purified using the procedure of West et al. ([40]), except that Bio-Gel P-60, was not used. CheB D56C/C207S/C309S and CheB D56C/S164A/C207S/C309S were modified to create a disulfide-linked phosphoryl group on D56C following the procedure described in reference but using a 10-fold molar excess of DTNB [Ellman’s reagent, 5,5′-disulfanediylbis(2-nitrobenzoic acid)] rather than 90-fold and a 50-fold molar excess Na3SPO3 rather than 1,000-fold. The extent of modification was 59% for the former and 60% for the latter determined by reversed phase chromatography essentially as described previously ([26]) and confirmed by Nano LC-Nanospray QTQF mass spectroscopy. Membrane scaffold protein MSP1D1(-) ([41]) was purified as described previously ([25]). Tar4E L378C, Tar4Q L378C, Tar4EΔpp-6H L378C, and Tar4QΔpp-6H L378C were purified, incorporated into Nanodiscs at approximately one receptor dimer per disc, and biotinylated at L378C as described previously ([23], [42]). […] These activities were confirmed for representative samples used in our analyses. Receptor-containing Nanodiscs were dialyzed into 50 mM Tris-HCl (pH 7.5), 0.5 mM EDTA, 10% (wt/vol) glycerol, and 100 mM NaCl. Prior to a binding experiment, the solution was changed using a spin desalting column to 50 mM Tris-HCl, 10% (wt/vol) glycerol, 5 mM MgCl2, and 50 mM KCl (pH 7.5).
(§3) Kinetics of CheB association and dissociation with Nanodisc-embedded Tar biotinylated at L378C were determined using biolayer interferometry ([22], [23]) as measured by a BLItz instrument (ForteBio, Menlo Park, CA, USA) and described in reference. Representative time course experiments are shown in Fig. S1 in the supplemental material. Measurements for CheB-P* and CheB-P*-I were in 50 mM Tris-HCl (pH 7.5), 10% (wt/vol) glycerol, 5 mM MgCl2, 50 mM KCl, and 2% (wt/vol) bovine serum albumin (BSA). Measurements for CheB and CheBc were in the same solution plus 2 mM dithiothreitol (DTT).
(§4) Using BLItz software, response curves were fit globally to a 1:1 binding model to yield apparent association rate constants (kon) and dissociation rate constants (koff). For analysis of complex patterns of binding, in which more than one binding reaction appeared to be contributing, for instance one that appeared saturable and another nonspecific, nonsaturable, the data were exported and fit globally to nonlinear exponential functions using OriginPro 2017. The best fits to the data were obtained using the following functions. R=R0 + Req[a(e^−kd1 t) + b(e^−kd2 t)] was used to globally fit dissociation time courses, with R being the response (in nanometers), a + b = 1, with a and b being the portion of the signal (in nanometers) for fast and slow phases, respectively, kd1 and kd2 being the respective dissociation rate constants, and Req being the response at equilibrium. Association data were fit using apparent dissociation rate constants kd1 and kd2, relevant CheB concentrations (C) and the equation R=R0 + Req[a(1 − e^−(ka1 C+kd1)t) + b(1 − e^−(ka2 C+kd2)t)]

For assay [8], the system named is Tar4QΔpp (chemoreceptor Tar, all-glutaminyl, lacking NWETF). Briefly: CheB binding to Tar4QΔpp (pentapeptide-lacking) in Nanodiscs (biolayer interferometry). On the set-up: species or system E. coli. The conditions noted are these: Tar 4Q, pentapeptide no, BLI, pH 7.5, 2% BSA (plus 2 mM DTT for CheB and CheBc); for dwell time (1/koff): calculated from mean koff; for dwell time (1/koff) / KA (equilibrium association constant): propagated SD; for KA (equilibrium association constant): calculated from mean kon and koff; for kon (apparent association rate constant): mean ± SD of at least three independent experiments. The method, then: as §1, §2, §3, §4

Assay [9] has as its system Tar4EΔpp (chemoreceptor Tar, all-glutamyl, lacking NWETF). In words: CheB binding to Tar4EΔpp (pentapeptide-lacking) in Nanodiscs (biolayer interferometry). On the set-up: species or system E. coli. The conditions noted are these: Tar 4E, pentapeptide no, BLI, pH 7.5, 2% BSA (plus 2 mM DTT for CheB and CheBc); for dwell time (1/koff): calculated from mean koff; for dwell time (1/koff) / KA (equilibrium association constant): propagated SD; for KA (equilibrium association constant): calculated from mean kon and koff; for kon (apparent association rate constant): mean ± SD of at least three independent experiments. As to the method: as §1, §2, §3, §4

[10] abbreviates: calculated from mean kon and koff, propagated SD.

B1: methylesterase/deamidase CheB from E. coli, low-activity, unphosphorylated form (enzyme, UniProt P07330 1-349, looked up)
chain: MSKIRVLSVDDSALMRQIMTEIINSHSDMEMVATAPDPLVARDLIKKFNPDVLTLDVEMPRMDGLDFLEKLMRLRPMPVVMVSSLTGKGSEVTLRALELGAIDFVTKPQLGIREGMLAYNEMIAEKVRTAAKASLAAHKPLSAPTTLKAGPLLSSEKLIAIGASTGGTEAIRHVLQPLPLSSPALLITQHMPPGFTRSFADRLNKLCQIGVKEAEDGERVLPGHAYIAPGDRHMELSRSGANYQIKIHDGPAVNRHRPSVDVLFHSVAKQAGRNAVGVILTGMGNDGAAGMLAMRQAGAWTLAQNEASCVVFGMPREAINMGGVCEVVDLSQVSQQMLAKISAGQAIRI
notes: CheB methylesterase/deamidase of E. coli, unphosphorylated, from plasmid pCW/cheB; measured with 2 mM DTT in the buffer; also called low-activity CheB; unmodified CheB; source: E. coli K-12 RP3098 with pCW/cheB, purified
Regarding B1, the Ka in assay [1] was determined as 1200 M⁻¹; in [2], 6300 M⁻¹; in assay [3], 4400 M⁻¹; in assay [4] it was 1700 M⁻¹. For the same molecule, the off-rate constant (koff) (in general, the first-order rate constant of dissociation) in [5] worked out at 0.64 s⁻¹; in [6] it was 0.36 s⁻¹. Moreover, the Kd – broadly, a measure of binding affinity in units of concentration – in [7] (50 mM Tris-HCl pH 7.5, 10% glycerol, 5 mM MgCl2, 50 mM KCl, 2% BSA (plus 2 mM DTT for CheB and CheBc), calculated from mean kon and koff, propagated SD, read-out: KD (equilibrium dissociation constant)) is 160 ± 30 µM. Moreover, the “dwell time (1/koff)” value is on record as 2.2 ± 0.1 s in assay [7] (propagated SD), 1.5 ± 0.05 s in assay [8] and 1.6 ± 0.2 s in assay [9]. Further, the “KA (equilibrium association constant)” value is on record as 6.3 ± 1 10^3 M^-1 in assay [7] (setting [10]), 1.7 ± 0.4 10^3 M^-1 in assay [8] and 1.2 ± 0.1 10^3 M^-1 in assay [9]. The results for the “kon (apparent association rate constant)” value in assay [7], in assay [8] and in assay [9] were 2,900 ± 480 M^-1s^-1, 1,100 ± 260 M^-1s^-1 and 750 ± 8 M⁻¹ s⁻¹, respectively.

B2: CheBC, catalytic domain of E. coli CheB lacking the regulatory domain and linker (domain or fragment)
chain: LSSEKLIAIGASTGGTEAIRHVLQPLPLSSPALLITQHMPPGFTRSFADRLNKLCQIGVKEAEDGERVLPGHAYIAPGDRHMELSRSGANYQIKIHDGPAVNRHRPSVDVLFHSVAKQAGRNAVGVILTGMGNDGAAGMLAMRQAGAWTLAQNEASCVVFGMPREAINMGGVCEVVDLSQVSQQMLAKISAGQAIRI
On to B2, for which the Ka in assay [1] was 1500 M⁻¹; in assay [2] it was 700 M⁻¹; in assay [3], 1700 M⁻¹; in assay [4] it was 800 M⁻¹. The results for the dissociation rate constant (koff) in [5] and in [6] were 0.44 s⁻¹ and 0.48 s⁻¹, respectively. The “dwell time (1/koff)” value in [7] (propagated SD) is recorded as 2.1 ± 0.4 s; in assay [8], 1.7 ± 0.1 s; in [9], 2.3 ± 0.2 s. The entries for the “KA (equilibrium association constant)” value in [7] (setting [10]), in assay [8] and in assay [9] were 0.7 ± 0.2 10^3 M^-1, 0.8 ± 0.1 10^3 M^-1 and 1.5 ± 0.3 10^3 M^-1, respectively. Also, the “kon (apparent association rate constant)” value in assay [7] turned out to be 350 ± 60 M⁻¹ s⁻¹; in [8], 480 ± 20 M⁻¹ s⁻¹; in assay [9], 670 ± 140 M⁻¹ s⁻¹.
